assay: soluble on expression in E. coli; label from the status in PepcDB or PDB records

Sequence | soluble on expression in E. coli
MSLKHTRPSIVNKRIDGRLTMSDNSKTRVVVGMSGGVDSSVTALLLKEQGYDVIGIFMKNWDDTDENGVCTATEDYKDVVAVADQIGIPYYSVNFEKEYWDRVFEYFLAEYRAGRTPNPDVMCNKEIKFKAFLDYAMTLGADYVATGHYARVARDEDGTVHMLRGVDNGKDQTYFLSQLSQEQLQKTMFPLGHLKKPEVRKLAEEAGLSTAKKKDSTGICFIGEKNFKNFLSNYLPAQPGRMMTVDGRDMGEHAGLMYYTIGQRGGLGIGGQHGGDNAPWFVVGKDLSKNILYVGQGFYHDSLMSTSLEASQVHFTREMPEEFTLECTAKFRYRQPDSKVTVHVKGDKAEVIFAEPQRAITPGQAVVFYDGEECLGGGLIDNAYRDGQVCQYIEGHHHHHH | soluble
MSLKHVIVETEETGYQTRSRVVSVEARTIRVPLERSTAFSTRLVTARDYTVVRVTTADGHYGIGFCYSGNRAGMLVTYAVRELFAPLLLGRSALDVEGSWCAMYDESLLQGRAGSVMRALSILDIALWDRNARATGLPLSRYLGGTCSATVPAYASGGYYLEGKTPEHLGEEMAGYVALGFRAVKMKVGRLDPRSEEARIRAAREAIGDDVLLMLDANNAWSDVPTALEYMRRYEPFNPYWIEEPFSPDDIESHAQLSRRTPVTVATGEIEAGRWRHQELLDKRAALILQSDAAVCGGISEWRRIAASAAAVGVTMCPHWFHDLHVHLVASTTNARYVEFFPDDQVLNFRRLVDTQLSFADGKLTVPTRPGLGFDFDEAALNEYALDDWAEGHHHHHH | not soluble
MSLKIAEAAARSGLSIDTIRFYERSGLLPPIARGADGMRRFSPETVDWLRLLASLRETGMELRAMRRFAELYRQGDATIPERRRILQDHAASLNGRRAALDRCAALLAHKLQRYCEIEGEGHHHHHH | not soluble
MSLKIGIIGASGKAGNEILKEAKKRGHEVTAIVRNASKVQEQDVAILEKDVFELTAEDIKPFDAVVNAFGAAPGQEHLHVEAGRALISILKDAKHTRLLVVGGAGSLFVDEAKTTRLMDTPEFPKEYLPTASNQGENLKDLQQTDSISWTFLSPAAFFDPAGKRTGSYQKGKDNVIVNAKGDSYISYADYAIAVLDELEHPEHKNERFTVVSEAEEGGSHHHHHH | soluble
MSLKIIILGAGQVGGTLAENLAGENNDITIVDTDSDRLRELQDKFDLRVVNGHGAHPKVLREAGAQDADMLVAVTNSDETNMVACQVAYSLFNTPNKVARIRSPAYLVERDRLFLPESVPVDHLIAPEQLVTDYVRRLIEYPGALQVVDFAGGKVGLVAVKAYYGGPLVGNALSTLRDHMPNIETRVAAIFRQGRSIRPQGTTIIEADDEVFFVAAAGHIRAVMSELQRLESPYRRIMIVGGGNIGAGLARQLEKRYSVKLIERNQKRAEQLSEVLENTIVFCGDAADQELLAEEHIDQIDVFIAVTNEDEANIMSALLAKKMGAKKTMVLIQRSAYVDLVQGGSIDIAISPQQATISALLTHVRRADIANVYSLRRGAAEAIEAIAHGDENTSKVVGKTVGELKLPPGTTIGAIVRGDEVLIAHDRTQIQQDDHVVMFLVDKKYIPEVERLFQPSPFFLEGHHHHHH | soluble
MSLKILIIEDDLALARSISHNLHDLGHFCEIISSISEENKEPYDVILVSSKVCTQGRCEHFVRYNSKQIIIMMASHVNEDGVNKPIQAGARDYILKPFKMDELLRKIQYHKAYQEMTARLGFYENYLDFIHAELPLPKDFSYRPPFIIHTPSQELANAYLLQYAKERQMDFSFFSLKDTTWKELYKNKDKLERPFYIMHLEELKKDEQLKLLELARSCPIVLSYTHKEPLEFPKIVSIECGNKPLSLFNNHTTFLSIQEYEKEAIRHFSSTCTDTELANKLGISRKSLWEKRRKYNLPREGHHHHHH | soluble
MSLKILVIGGTGNIGLPLIQYLDQQVGVQVVAGAHNLHKDEQLLATYPDVEIRRFDFLDETTFDAALRGIQKVFFVRPPQLAKPKQDMWPFLKCLQAHHIEQVVFVSLMGVEHNPMTPHHQIEQMIEQLQLPYTFIRPSFFMQNLNTTHRVDIQQNHDLFIPAGRSKTSFIDTRDIGEIAGVALLDTQYLQQKLTVTGPEALTYQQIAALMTESFGHPVTYHRPSLWRFRRVMLKRGIKKDYVNVMVMLYLITQLGNAKRVTDTAEKVLGHAPHTMTTYLRDYADQLQEGHHHHHH | not soluble
MSLKILVIGPSWVGDMMMSQSLYRTLKARYPQAIIDVMAPAWCRPLLSRMPEVNEAIPMPLGHGALEIGERRRLGHSLREKRYDRAWVLPNSFKSALIPFFANIPHRTGWRGEMRYGLLNDARVLDKDAWPLMVERYVALAYDKGVMRAAKDLPQPLLWPQLQVSEGEKSLMCSDFSLSSERPLIGFCPGAEFGPAKRWPHYHYAELAKQLINEGYQVVLFGSAKDHEAGNEILAALNSEQQAWCRNLAGETQLEQAVILIAACKAIVTNDSGLMHVAAALDRPLVALYGPSSPDFTPPLSHKARVIRLITGYHKVRKGDTAQGYHQSLIDITPQRVLEELHSLLSEEGVEGGSHHHHHH | soluble
MSLKKDIIILGIESSCDDTSAAVVRNETMLSNVIAGQAVHKAYGGVVPELASRAHQQNIVPVVSEAIKRAGIRKEEIDAIAFTRGPGLLGSLLVGTSFAKGLSLSLGIPMLEVNHLHAHVLANFLREPGEESQHPSFPFLCLLVSGGNSQIILVRSPYDMEVIGQTIDDAAGEAFDKCAKVMGLGYPGGPIVNKLASEGNPDAFRFARPHVSGYDYSFSGLKTSFLYTLRDKLAEDPDFIEKNKADLCASLQHTVIDILMKKLRQAAKDHSIKQVALAGGVSANTGLRDAFHDHARRYGWTVFIPKFAYTTDNAAMVAISGYYKYLQGDFCPIDAVPFSRITVEGHHHHHH | soluble
MSLKKEYLQCQSLVDVVRLRALHSPNKKSCTFLNKELEETMTYEQLDQHAKAIAATLQAEGAKPGDRVLLLFAPGLPLIQAFLGCLYAGCIAVPIYPPAQEKLLDKAQRIVTNSKPVIVLMIADHIKKFTADELNTNPKFLKIPAIALESIELNRSSSWQPTSIKSNDIAFLQYTSGSTMHPKGVMVSHHNLLDNLNKIFTSFHMNDETIIFSWLPPHHDMGLIGCILTPIYGGIQAIMMSPFSFLQNPLSWLKHITKYKATISGSPNFAYDYCVKRIREEKKEGLDLSSWVTAFNGAEPVREETMEHFYQAFKEFGFRKEAFYPCYGLAEATLLVTGGTPGSSYKTLTLAKEQFQDHRVHFADDNSPGSYKLVSSGNPIQEVKIIDPDTLIPCDFDQVGEIWVQSNSVAKGYWNQPEETRHAFAGKIKDDERSAIYLRTGDLGFLHENELYVTGRIKDLIIIYGKNHYPQDIEFSLMHSPLHHVLGKCAAFVIQEEHEYKLTVMCEVKNRFMDDVAQDNLFNEIFELVYENHQLEVHTIVLIPLKAMPHTTSGKIRRNFCRKHLLDKTLPIVATWQLNKIEEGHHHHHH | soluble
MSLKKILVQWKNGPSQIGRMYPLPVFDEHDIVQLCSEVKDILRIQPAVIQRKPGVIIVGDLHGNFLNFLQIFAIHGLPPNQNYIFLGNYINYGEFSLEVVIYLFSLYYLFPSNISLLRGSTEFYPSKGPRSLSSNIDTTYGPNSILKSVFLETFTYLPIACLIGNSVLCSRSSLVSRYSNLQEIFHETLPIPCVVDQSHLFLSGLANVIPSEEVLEEFLATNNLNFLIFGGKNAGDGVENMLDDRCYALASDAHMGYCGIINLVGNQPPFAIIFTPDSDLLRENAQMLREGHHHHHH | not soluble
MSLKKTILCFGEALIDMLAQPLVKKGMPRAFLQCAGGAPANVAVAVARLGGAVQFVGMLGSDMFGDFLFDSFAEAGVVTDGIVRTSTAKTALAFVALDAHGERSFSFYRPPAADLLFRVEHFQDASFSDALIFHACSNSMTDADIAEVTFEGMRRAQAAGAIVSFDLNFRPMLWPNGENPASRLWKGLSLADVVKLSSEELDYLANTLAADANAVIQQLWQGRAQLLLVTDAAGPVHWYTRTAGGEVPTFRVQVQDSNAAGDAFVGGMLYTFAQQFDDAAALIDFCHDPESIVSTLRFAAAVGALAVTRQGAFTAMPMLSEVLSLIQEQSEGHHHHHH | soluble
MSLKLKIADIAMRTGLSSSTVSRVLAGKANTSYRAREKVLACARELGVMDGMASGRMLLNNLVIFAPQRAFDERTDIFYFRVIQSISKALSHYEVRLRYCALDEFDSTPSKFLARMNEAETQAAILLGIDDPHIHDLAADFSKPCVMINCHDRRMRLPTVAPDHKNIGAFASHFLFEMGHRRVMNIMCLRRYTMELRLAGIKEAWERQNQNFKDDRDLLTINSFSAKEAEEKVGAWLDMTEKSMLPTAFLASGDFIAAGIINALKKRNIRVPQDVSVMSIDGFNLAAIEDVPLTAVHVPRDELGTEAVHMLQQRLVRPDATVGALLLYGKLVIRESVREGHHHHHH | not soluble
MSLKLLAIDSATQAATCAVMDDDKLLGEITFNYKKQHSVILMSMIDDMLNTVNLKVEDLDGFVVSKGPGSFTGLRIGMSIVKGLSEGSKKPFVSVSSLDALAYNMAYTPGIICPVLDALRDNVYTALYTFEGNSLKRLTEYDAIHITELIELLKGYDSQVTFIGDAVYKFRNFFDENVENVQFAPAHLNLVRSSSLCELGMELLKSGVKDDLITSAPIYIRKSQAEREYEKRTGMSIDDEGHHHHHH | soluble
MSLKLVKLETFSTEFVCFVRATAEDGAQGWGQVAPYYADITAQVLHRQVAPYALGMACEDIDAMLDIVRDREHKFPGSYLRRAMGGVDTALWDMHGRRAGKPVCVLIGGTPGPVRAYGSSMKRDITPRDEAARLVRLRDEQGFDAFKFRIGAEVGRDRDEWPGRTEEIVPTMRRAMGDDVALLVDANSCYSPARAIEVGRMLEQHGISHYEEPCPYWEFAQTKEVTDTLDLDITGGEQDCLMERWQTMIADRVVDVLQPDICYLGGLSRTLRVARMAEAAGMPITPHAANLSMVTLFTMHLLRAIPNAGKYLEFSIEGLDYYPWQQGLFTSDPYRIEEGHATVTDAPGWGVDVNPDWLARSEGHHHHHH | not soluble
MSLKNFVVKDIGIPKYIENMVGKGDFYLLNKRKLNSHKGQNGKVLIIGGSKEYHGAPVFSGLAASKFADIVTVASVSNVIGTVRNYPELMPYELNGEYIGQKNTDELLKLSKNYDCTVLGSGLSLNSSTKEFVNSYLNETNGKVVIDADAIKLIDYGNFEFKNNFIFTPHKKEFEYMKDYVKKYAKNQGFNSTVVLKGSIDIVFDPDNIKMNITGNQGMTAGGTGDILCGIIGAICACNDAFPSACCGTYINGYCGDLLEKEYGYYYNSTDIIKILPKALKELLYEGHHHHHH | soluble
MSLKPRIAIVGLGLIGGSLARRLVNAGCEVTAWNHNDRPYATAEADGIICKPTLAALAETKPNVLVLCNPLKAMPEILGALKPLIDTETTTLTDVGSVKGMVRDQVKAIGLDGCYVGAHPMAGNELSGWEASDPTLYDDALWAITVDEHTEYRRFRAVADMIVNRCGNRLIVLDDATHDRCAALISHMPHVIATAMINELVANPNRNIAAALAAGSWRDMTRVALTDPNRTRAMVEEDAANVETLLRNMANRLTLVANVLHDMADTGVRPTEGDVKQMDRFFAQGQPFRDYKAASRQPEYAEHCATVELSIPENDWQRTLLESARRGEHIVRFDGERTAIAQARSVEGHHHHHH | soluble
MSLKPRVAVIGSGSIGLLLYAYLKLANWPALLVTNRPEQADHLNKEGLTFVAKSGEHQPISVTATPLSSFSAEEAEVGFITVKSFAVKALLPQLQRKKWDGLVFFQNGMTHLEILRQIPARAICCGIVEIGAKRESDVRVQHTGDGAIWIGDMVGDSKNFDPMWACLHNAGLKAQKVTNWQDKMERKLIANAAINPLTGLFRVKNGALIENQLFSLLLKELVKEACVTLGREREVDEHLAYTRAICDKTANNLSSMYMDLTHHRRTEIESITGYLIKEAAKKGIEIPNTSFVYHAVMGMDEEGRKVREGHHHHHH | soluble

Source: the DeepSol protein solubility set
